Measured values taken from patent US20260102474A1 (published 2026).
Positions count from the first letter of the chain named.

Legend:
[1] = biological target: SARS-COV-2 spike protein on Caco-2 cells infected with the original version of SARS-COV-2 (SARS-COV-2-mNG) (SARS-COV-2, UniProt P0DTC2 14-1273); test: flow
[2] = biological target: SARS-COV-2 full-length trimeric spike protein, parental (SARS-COV-2, UniProt P0DTC2 14-1213); test: competition

B1: ACE2-M2-FcKO (Fc fusion)
chain: STIEEQAKYFLDYFNVQAEDLFYQSSLASWNYNTNITEENVQNMNNAGDKWSAFLKEQSTYAQRYPLQEIQNLTVKLQLQALQQNGSSVLSEDKSKRLNTILNTMSTIYSTGKVCNPDNPQECLLLEPGLNEIMANSLDYNERLWAWESWRSEVGKQLRPLYEEYVVLKNEMARANHYEDYGDYWRGDYEVNGVDGYDYSRGQLIEDVEHTFEEIKPLYEHLHAYVRAKLMNAYPSYISPIGCLPAHLLGDMWGRFWTNLYSLTVPFGQKPNIDVTDAMVDQAWDAQRIFKEAEKFFVSVGLPNMTQGFWEYSMLTDPGNVQKAVCHPTAWDLGKGDFRILMCTKVTMDDFLTAHREMGRIQYDMAYAAQPFLLRNGANEGFHEAVGEIMSLSAATPKHLKSIGLLSPDFQEDNETEINFLLKQALTIVGTLPFTYMLEKWRWMVFKGEIPKDQWMKKWWEMKREIVGVVEPVPHDETYCDPASLFHVSNDYSFIRYYTRTLYQFQFQEALCQAAKHEGPLHKCDISNSTEAGQKLFNMLRLGKSEPWTLALENVVGAKNMNVRPLLNYFEPLFTWLKDQNKNSFVGWSTDWSPYADQSIKVRISLKSALGDKAYEWNDNEMYLFRSSVAYAMRQYFLKVKNQMILFGEEDVRVANLKPRISFNFFVTAPKNVSDIIPRTEVEKAIRMSRSRINDAFRLNDNSLEFLGIQPTLGPPNQPPVSSGGGGSGGGGSGGGGSEPKSSDKTHTCPPCPAPPVAGPSVFLFPPKPKDTLMISRTPEVTCVVVGVSHEDPEVKFNWYVDGVEVHNAKTKPREEQYNSTYRVVSVLTVLHQDWLNGKEYKCKVSNKQLPSPIEKTISKAKGQPGQPREPQVYTLPPSRDELTKNQVSLTCLVKGFYPSDIAVEWESNGQPENNYKTTPPVLDSDGSFFLYSKLTVDKSRWQQGNVFSCSVMHEALHNHYTQKSLSLSPGK
EC50 [1]: 0.48 µg/mL | IC50 [2]: 9.4 nM

B2: ACE2-M1-FcKO (Fc fusion)
chain: B1 chain with Y13K, V16H, Q17E, R64M
EC50 [1]: 0.29 µg/mL | IC50 [2]: 3.8 nM
